Measurements as given in US7250195B1, “Molecular plasma deposition of colloidal materials” (Ionic Fusion Corporation, priority 2006, dated 2007).
≈ marks a conversion by molar mass, not a printed value. One block for each molecule: values may come before it.

Experiments:
[1] = cited from earlier work
[2] = activity of the catalase colloidal suspension before deposition; type: biochemical, bovine; conditions: colloidal suspension in water with 0.1% thymol, protein 33 mg/ml
Description: 25 ml of a 2× crystallized bovine liver catalase (Sigma C100-58MG; 056K7010) colloidal suspension in water with 0.1% thymol was prepared. Protein concentration was 33 mg/ml with an activity of 4.1×10^4 U/ml.

[3] = catalysis of 5% hydrogen peroxide solution by plasma-deposited catalase coating; type: biochemical, bovine; conditions: for catalytic activity after molecular plasma deposition: deposited 10 min on aluminum oxide disk, placed in 5% hydrogen peroxide
Source text: Using the apparatus illustrated in FIG. 2, the high voltage power supply was attached to a 304 stainless steel, 18 gauge needle set at −5000V. The substrate was an aluminum oxide disk ¼″ thick by 1.5″ in diameter, having an area of approximately 11 sq cm and set at a potential of 5000 V. The substrate was centered and placed 5 cm from the hole in the chamber. The chamber was pumped to 40 mTorr and the flow of the colloidal suspension initiated. The deposition onto the substrate was allowed to proceed for 10 minutes. At the end of the deposition process, the substrate was removed from the chamber and the sample was placed in a 5% solution of hydrogen peroxide.
The deposition was repeated twice under the same conditions, except that after the substrate was removed from the chamber, the samples were placed in an ultrasonic water bath for 10 min. Additionally, one of the samples was maintained at 10° C. for 72 hr after removal from the bath.

Molecule: Nc1cc[nH]c(=O)n1 [cytosine]
water solubility [1]: insoluble

Molecule: NCCCC[C@H](N)C(=O)O [Lysine]
water solubility (in words) [1]: highly water soluble

Molecule: Nc1nc2nc[nH]c2c(=O)[nH]1 [guanine]
water solubility [1]: insoluble

Molecule: Nc1ncnc2nc[nH]c12 [adenine]
water solubility [1]: 0.5 g/L (≈ 3.7 mM)

activity of suspension [2]: 4.1×10^4 U/ml | catalytic activity after molecular plasma deposition ([3]; listed as Catalase): without loss of catalytic activity
B1: catalase: 2× crystallized bovine liver catalase (Sigma C100-58MG; 056K7010), a polypeptide enzyme (protein, UniProt P00432 2-527, looked up)
Catalase: ADNRDPASDQMKHWKEQRAAQKPDVLTTGGGNPVGDKLNSLTVGPRGPLLVQDVVFTDEMAHFDRERIPERVVHAKGAGAFGYFEVTHDITRYSKAKVFEHIGKRTPIAVRFSTVAGESGSADTVRDPRGFAVKFYTEDGNWDLVGNNTPIFFIRDALLFPSFIHSQKRNPQTHLKDPDMVWDFWSLRPESLHQVSFLFSDRGIPDGHRHMNGYGSHTFKLVNANGEAVYCKFHYKTDQGIKNLSVEDAARLAHEDPDYGLRDLFNAIATGNYPSWTLYIQVMTFSEAEIFPFNPFDLTKVWPHGDYPLIPVGKLVLNRNPVNYFAEVEQLAFDPSNMPPGIEPSPDKMLQGRLFAYPDTHRHRLGPNYLQIPVNCPYRARVANYQRDGPMCMMDNQGGAPNYYPNSFSAPEHQPSALEHRTHFSGDVQRFNSANDDNVTQVRTFYLKVLNEEQRKRLCENIAGHLKDAQLFIQKKAVKNFSDVHPEYGSRIQALLDKYNEEKPKNAVHTYVQHGSHLSAREKANL
catalytic activity after deposition and ultrasonic water bath ([3]; coated sample in ultrasonic water bath 10 min, then 5% hydrogen peroxide): produced bubbling of oxygen from the surface of the substrate | catalytic activity after molecular plasma deposition [3]: producing bubbling of oxygen from the surface | catalytic activity after deposition, ultrasonic water bath and storage ([3]; ultrasonic water bath 10 min, then 10° C. for 72 hr, then 5% hydrogen peroxide): produced bubbling of oxygen from the surface of the substrate
